Assay results: the DeepSol protein solubility set

Assay: soluble on expression in E. coli; label from the status in PepcDB or PDB records

Sequence	soluble on expression in E. coli
MSDLHIPGTQSTPAIQGDWQAGRLSMQGDSYPENSYELFGQVIDWVERFLADGQRPLELDLRLLYLNTSSIKAMMDILDLLEEAHQGGRPVSLRWHYDRRNERVAELAEEFREDCSFPFAIQAHDE	not soluble
MAVDMFIKIGDVKGESKDKTHAEEIDVLAWSWGMSQSGSMHMGGGGGAGKVNVQDLSFTKYIDKSTPNLMMACSSGKHYPQAKLTIRKAGGENQVEYLIITLKEVLVSSVSTGGSGGEDRLTENVTLNFAQVQVDYQPQKADGAKDGGPVKYGWNIRQNVQA	soluble
MSFSDHFSAVAASYAKARPRYPQRWFRYLARIVPDRQRVWDCATGNGQAAIALAEYFSEVIGSDASAAQVRQARSHPRVQYLVFPAEATPLAPASLDLITVAQAAHWFDLPQFYIEAQRLLRPGGVIALWGYGLGSLNPAIDHVFNHFYRDWLDPYWPPERQWVEQAYEGLSFPFEPLPTPTFSMQCDWTLFDLLAYLRTWSGVQQFQRQRGFDPVWAIAPELQRVWGDPQRYRRITWPLFAKVGRWQPLEHHHHHH	soluble
MASTNCVSIQKRDILRGSGSTTWFDVLLEKGSCVTIVADDRPTVDIWLDRITHESPIAGREYCMRVDISGLKIATRCPTLGEAYLSEEHTEDYVCKRGFSDRGWGNGCGLFGKGSIVGCVKTTCKSSGIAKSYSYDIPKVKYVISTEVHKGELISGNVSASVVSATFSSEAEKHSMELEDYGRLEFTCRVVSGSNLGSVRILEIDNHYFNVHEDWLLDLPLPWRIPDGHWHDLGELIAFKEPHAVKMVAQAYGDQRASLLKSLVKAEEIAKSGNSYYLPGGHVDCRVSLVNLKLKGTTYPYCGDSFVWKRRPTATHHGTVAMEVTYQGTDVPCKVSVIVEKDGQNGGNAGSLITSNPIITAQGSSVFLELEVPLGFSTIKVGAAKQQWRQDGSSIGKALETHHHHHH	not soluble
MGSDKIHHHHHHMEFTKKSKLKNMYVNMNVARMLSKINEYKGRQLLYKKQPKEILENLEKKSLVDCSESTYIGNQRDSSNFNLEKLISNEVTPRSREELSIVEYRDVVKTINSAYESIPISSQTILELHGYLYKFSSTRGGSYKSDNDFIEHNLKPSEFISTDSSVNKVEKAVEEICEAYNTLIEEDEIDILILISAFVLDFILIHPFKEGNIKMARVLILLLLNKNGYEVGRYISLGKIFDDSSYEYYSNLNYLKASIGSEKADMNAWIEYFLETILTAYEKLDDSLNISDKKRQTKTSRIEKIINSTLGYFTKEDIRDLCPDIPEPTINRVFNNLRKQDKIEVVARGRSAKWKKKY	not soluble
MGSDKIHHHHHHVRACCGDQRAMSATDHGLPAIAELTDKELEVLRLLTAGHTIKSIAALLDRSEASINERLRDARRKTGVGSSRELARLVAGQENWPRKTDLSTPAVSGDADGQPALAARHWPKGTIAMFTLLPLAAGLMLVSAASQQADGPQSSHAAAAIASPLVGKWSLDTSRIPADERPRSVMIAFSVSPDQQWSTQVDIVAPDGSKMTATSTARADGVAVPISGNIPIFDTASLRQPAPNTLVMTLGKSGTPVATRVYTVARDGNSMTETIVWADKTMPKMETTYFNRVG	not soluble
MSLSPEDAIVIILSDDDTIRSALDANIHLQGRRSHLCKSRTDFLISPEADLVGCVVLDARLPDLTASDLTHLICAHAIRCPVIVLTGHGGQAMTVNATKFHVSFIPQPFDLNALAEKIHAAIRTTMEIGRLEGNYRTLTPREREVMKFVAEGLLNKQVAFKLNISEITVKAHRGQVMRKMNARTLPHLVNMAAKLDIGVAFLHEGHHHHHH	soluble
MDRIQENQKKATNLCELYADGNDDDSEKEQQDRGLDAQFLLRSTPEDVEKYMIHVRKQLMEGEGECLVELGAPINSNSKNPKSGLSEEDLDKAADAQLKILEKIPAVGTKVIRRKQTGGGSLFTEVWIIRDPPTEKDFIEARVAVVGNVDAGKSTLLGVLTHSALDDGRGAARTKLFRHKHEFESGRTSSVGNDILGFDVHGNIVNKPDPHNHNLDWVQIGSDCAKLVTFIDLAGHEKYLKTTIFGMTGHMPDYTMLMIGANMGIIGTTKEHLSLALSLHVPVYLVVTKIDMCPANILEETMKNITRLVRSAKKLPILVRNMDDVVHAAVNFPSKKVCPIFQVSNVEGTNLPLLRQFLNIVPLRRQLNENDPAHFQIDDIYWVDGVGTIASGTLLSGTIRLNDILLLGPTSNGDFMPIPIKSIHRKRMPVGIVKCGQSASFALKKIPKKDVRKGMVLVDPKVKPVASMVFEAEILVLHHPTTIKPNYQAMLHIGSVRQTATLVSMGKEVLRTGDRDKVQFKFIRQPEYIRPGTKMVFREGRTKAVGTVSSVVPQESLAQQRAKQKDGRQKQYGKKSMGPKPPNGKPKEKIEKKLDALSIEQLTSAASTSTSST	not soluble
MTAIEQTEAVRPRGTRLPRRARRNQLLGAAQEVFVAQGYHAAAMDDIAERAGVSKPVLYQHFPGKLDLYLALLDQHCEALIQSVRSALASTSDNKQRVRATMDAYFAYVEDDGGAFRLVFESDLTNEPAVRERVDKVTNECAEAICDVIAEDTGLSRAESMLLASGLGGLAQVVARSWLHSDRSVPRDQAVQLLTSLAWRGIAGFPLHGIEQH	not soluble
MIEQPDSKSAKPLYKQLEAALKEAIARGEYKPGQQIPTENELSVRWQVSRVTVRKALDALTRENLLTRVSGKGTFVSGEKFQRSMTGIMSFSELCQSQGRRPGSRTIKSVFESVDDETKALLNMNDGEKAVVIERIRYADDVAVSLETVHLPPRFAFLLDEDLNNHSLYECLREKYHLWFTHSRKMIELVYASFEVAHYLGVNEGYPLILIKSEMIDNKGELSCVSQQLIVGDKIRFTV	not soluble
MGSDKIHHHHHHMFENILWKMVKKRLIPKRKISRVHRSRKGVKRVVCVAFPLDQMFKSADDFIDALMEILQEDLPFVDLLIFPRLTGNLLAGVSPIRIENFEKLDPFYTDLLRYISKGLDVPIVAPGVETFRTSPDVLVIENGEVLHRYTLRERFAVADFGEWYAAVLRKEDTLSSKALRPLVEKNVFAFIHFDLETEENDWWKEKKGLWARSQSLEVFGIKVSPRGTFLGKTYRGKSYVSAPIPLTPNLTGFLRQDCGVKMSVDLELDLLKGKRHRIDTVKHILFRG	not soluble
MTIIFPSPIFGPVHSRRLGVSLGINLLPEDGKVCSFDCIYCECGFNADHRPKKHLPTREEVRIALEEKLKDMQKNGPAPDVLTFAGNGEPTAHPHFPEIIEDTLALRDHYFPNAKVSVLSNSTFIDRPAVFDALNKIDNNILKLDTVNEEYIHLLDRPNGKYSVRKIIEKMKEFKGNCIVQTMFLKGSYLGKDMNNTSDEFVLPWLEAVKEIAPSQVMIYTIDRETPDHDLQKATHEELDRIVELIKRTGIPATASY	not soluble
MTDIETIYKKLSHVISKEDFLQRIQEKVENMGGLCDETMAAMLVANELGFSDAGRDSIKIENITPESGPVNFIARIISVFDTKEFTRNDGTIGRVGNLIVGDETGKVKLTLWDNMADLIKMGKIKAGQSVQVSGFAKQGYSGVEVNIGNNGVLTESEEEIDVVSNSYKIKDIKDGMGDINLNGKVLEVSEIRTFQRKDGNSGRVGNLMLGDETGTLRVTLWDDKTDFLSQVEYGDSIELINAYARENAFSQKVELQVGNRSIIRKSEKKIEYEEEFTPIDDIKADMNNINISGRILDISEVRTFEKKDGSTGRVGNVLLGDSTGKIRLTLWDEKTDILEEIDFDETVEVLNAYSRENTFSQQVELNLGARGIIQRSEKKVEYREKFTDIADIIPGESYSIQGKVAEIGELREFEKEDGTENVVANLQLKDDTGSIRLTLWGEQAYVIEDLDIDSEIQIIDAYARYGLNEEIELSVGNRSRVIILLEHHHHHH	soluble
MGSDKIHHHHHHMSISPNPNIAEIAALFGETSRAAILTSLLDGRLHTASDLAYRAGITPQTASFHLGKLAEGGLVSVEKHGRHRYYQLANGEVASLLESFLVISPQPEVKSLKQSAQMVMLQKARTCYDHLAGKLGVGITDSMLDSGYLKKDGKEFVLTEAGVQFVINFGLDLESIKKKRRSLSHACLDWSERSYHLAGALGNQLMQHFFDLGWITPLPGIRAVKVTDQGKAGFKQYFNISL	not soluble
MFVYYIYTIIKSQSKSTPHHYHPCWSNSAAGLKKWGGFMNIKNNRRRRASRDAIENIFIELLQTKSLNEITVSDICKKAGLNRSTFYANYMDIYQLADTIRETLEDNLNDLYRSEIAGGYNSNDYLPLFRHIKENQPFYNTYFKLGYDNQYKIFKYDTALARDHFGNRFIDYHCEFFKSGITAIIKHWLSNGCLETPEEINGILMSEYRGRKMEET	not soluble
